Key:
[1] = molecular target: T1, human FolR3 ECD-AcTev-Fcknob-Avi tag + Fc hole, biotinylated monomeric Fc fusion (human, UniProt P0DOX5 223-449 = IgG part); assay: SPR, IgG single injection
T1 construct: also called huFolR3; FolR3-Fc

[2] = molecular target: T2, human FolR2 ECD-AcTev-Fcknob-Avi tag + Fc hole, biotinylated monomeric Fc fusion (human, UniProt P0DOX5 223-449 = IgG part); assay: SPR, IgG single injection
T2 construct: also called huFolR2; FolR2-Fc

[3] = molecular target: T3, murine FolR1 ECD-AcTev-Fcknob-Avitag + Fc hole, biotinylated monomeric Fc fusion (murine, UniProt P0DOX5 223-449 = IgG part); assay: SPR, IgG single injection
T3 construct: also called muFolR1; murine FolR1-Fc

[4] = molecular target: human FolR2 on transiently transfected HEK cells (human, UniProt P14207 17-230); assay: flow cytometry on HEK cells transiently transfected with human FolR2, anti-human secondary antibody; concentration not given
[5] = molecular target: T4, cynomolgus TIM-3 on isolated cyno CD14+ monocytes (cynomolgus); assay: flow cytometry, cyno CD14+ monocytes cyno2
T4 construct: whole, on cells

[6] = molecular target: T5, human TIM-3 on cells (human, UniProt Q8TDQ0 22-301); assay: flow cytometry, human CD14+ monocytes donor1
T5 construct: also called CHO-Tim3; rec CHOK1 cells expressing huTIM-3
Source text: (§1) CD14+ Monocytes were isolated from anticoagulated peripheral blood of healthy donors by density gradient centrifugation using Ficoll-Paque (GE Healthcare) (see General Protocols in the User Manuals or visit www.miltenyibiotec.com/protocols) and subsequent positive selection via CD14 MicroBeads. First the CD14+ cells are magnetically labeled with CD14 MicroBeads. Then the cell suspension is loaded onto a MACS® Column which is placed in the magnetic field of a MACS Separator. The magnetically labeled CD14+ cells are retained in the column. The unlabeled cells run through, this cell fraction is depleted of CD14+ cells. After removal of the column from the magnetic field, the magnetically retained CD14+ cells can be eluted as the positively selected cell fraction. After centrifugation at 200×g for 10 min at room temperature the monocytes were harvested and used directly in binding assay or resuspended in freezing medium (10% DMSO, 90% FCS) at 1.0E+07 cells/ml and stored in liquid nitrogen.
(§2) 1×10⁵ CD14+ isolated human monocytes (50 μl/well) were put into 98 well-v bottom MTP in fresh culture medium and incubated with Redimune® NF Liquid for 15 min at RT to block unspecific binding. […] After washing and centrifugation MFI signals of stained cells were analyzed by BD Biosciences FACSCanto flow cytometer.

[7] = molecular target: T5, human TIM-3 on cells; assay: flow cytometry, human CD14+ monocytes donor3
[8] = molecular target: T5, human TIM-3 on cells; assay: flow cytometry, human CD14+ monocytes donor2
Source text: as §1, §2

[9] = molecular target: T5, human TIM-3 on cells; assay: cell-based or functional assay
[10] = molecular target: T4, cynomolgus TIM-3 on isolated cyno CD14+ …; assay: flow cytometry, cyno CD14+ monocytes cyno3
Source text: (§3) CD14+ Monocytes were isolated from cynomolgus monkey anticoagulated peripheral blood (Covance) by density gradient centrifugation using Ficoll-Paque (GE Healthcare) (see General Protocols in the User Manuals or visit www.miltenyibiotec.com/protocols) and subsequent positive selection via NHP CD14 MicroBeads. First the CD14+ cells are magnetically labeled with CD14 MicroBeads. Then the cell suspension is loaded onto a MACS® Column which is placed in the magnetic field of a MACS Separator. The magnetically labeled CD14+ cells are retained in the column. The unlabeled cells run through, this cell fraction is depleted of CD14+ cells. After removal of the column from the magnetic field, the magnetically retained CD14+ cells can be eluted as the positively selected cell fraction. After centrifugation at 200×g for 10 min at room temperature the monocytes were harvested and used directly in binding assay or resuspended in freezing medium (10% DMSO, 90% FCS) at 1.0E+07 cells/ml and stored in liquid nitrogen.
(§4) 1×10⁵ CD14+ isolated cyno monocytes (50 μl/well) were put into 98 well-v bottom MTP in fresh culture medium and incubated with Redimune® NF Liquid for 15 min at RT to block unspecific binding. Than 50 μl/well of Alexa488 labeled anti-TIM3 (10 μg/ml in cell culture medium) were added and incubated for 1 h at 4° C. After washing and centrifugation MFI signals of stained cells were analyzed by BD Biosciences FACSCanto flow cytometer.

[11] = molecular target: T4, cynomolgus TIM-3 on isolated cyno CD14+ …; assay: flow cytometry, cyno CD14+ monocytes cyno1
Source text: as §3, §4

[12] = molecular target: T5, human TIM-3 on cells; assay: cell-based or functional assay; remark: listed apart in the source
[13] = molecular target: T3, murine FolR1 ECD-AcTev-Fcknob-Avitag + …; assay: SPR ProteOn, Fab analyte
Procedure: Immobilization of antigens (ligand): Recombinant antigens were diluted with PBST (10 mM phosphate, 150 mM sodium chloride pH 7.4, 0.005% Tween 20) to 10 μg/ml, then injected at 30 μl/minute in vertical orientation. Injection of analytes: For ‘one-shot kinetics’ measurements, injection direction was changed to horizontal orientation, two-fold dilution series of purified Fab (varying concentration ranges) were injected simultaneously along separate channels 1-5, with association times of 150 or 200 s, and dissociation times of 200 or 600 s, respectively. Buffer (PBST) was injected along the sixth channel to provide an “in-line” blank for referencing. Association rate constants (kₒₙ) and dissociation rate constants (koff) were calculated using a simple one-to-one Langmuir binding model in ProteOn Manager v3.1 software by simultaneously fitting the association and dissociation sensorgrams. The equilibrium dissociation constant (KD) was calculated as the ratio koff/kₒₙ.

[14] = molecular target: T6, Tim3-ECD-His-Biotin (human, UniProt Q8TDQ0 22-202); assay: ELISA, human Tim3
T6 construct: also called human Tim3 (ELISA); Biochem Human

[15] = molecular target: T5, human TIM-3 on cells; assay: cell ELISA, CHO-Tim3; EC50 relative to the sample's max value
[16] = molecular target: T7, cynomolgus Tim3 (ELISA) (cynomolgus, UniProt A0A2K5U3G7 22-193); assay: ELISA, cyno Tim3; EC50 relative to the sample's max value
T7 construct: also called Biochem Cyno; cyno TIM3
T7 sequence: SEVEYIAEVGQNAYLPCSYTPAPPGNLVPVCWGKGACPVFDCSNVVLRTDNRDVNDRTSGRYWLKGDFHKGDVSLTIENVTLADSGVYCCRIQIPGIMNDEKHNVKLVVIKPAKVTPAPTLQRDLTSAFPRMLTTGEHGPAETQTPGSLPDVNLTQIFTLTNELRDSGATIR

[17] = molecular target: T6, Tim3-ECD-His-Biotin; assay: ELISA, human Tim3; EC50 relative to the sample's max value
[18] = molecular target: T7, cynomolgus Tim3 (ELISA); assay: ELISA, cyno Tim3
[19] = molecular target: T5, human TIM-3 on cells; assay: cell ELISA, CHO-Tim3

Sequence of human FolR2 on transiently transfected HEK cells (P14207 17-230 limits assumed): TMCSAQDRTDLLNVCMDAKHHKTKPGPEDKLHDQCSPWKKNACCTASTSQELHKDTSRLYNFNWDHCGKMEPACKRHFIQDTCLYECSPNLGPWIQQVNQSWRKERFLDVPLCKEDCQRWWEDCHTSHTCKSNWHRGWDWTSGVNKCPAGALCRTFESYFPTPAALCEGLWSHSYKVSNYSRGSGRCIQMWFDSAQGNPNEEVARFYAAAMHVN

B1: 16F12 IgG (antibody, V domains shown)
VH: QVQLVQSGAEVKKPGASVKVSCKASGYTFTSYYMHWVRQAPGQGLEWMGIINPSGGSTSYAQKFQGRVTMTRDTSTSTVYMELSSLRSEDTAVYYCARNFTVLRVPFDYWGQGTLVTVSS
VL: QAVVTQEPSLTVSPGGTVTLTCGSSTGAVTTSNYANWVQEKPGQAFRGLIGGTNKRAPGTPARFSGSLLGGKAALTLSGAQPEDEAEYYCALWYSNLWVFGGGTKLTVL
notes: human IgG1
[1]
  binding result: no binding (tested: 500 nM)
[2]
  binding result: no binding (tested: 500 nM)
[3]
  binding result: no binding (tested: 500 nM)

B2: 21A5 IgG (antibody, V domains shown)
VH: not shown
VL: QAVVTQEPSLTVSPGGTVTLTCGSSTGAVTTSNYANWVQEKPGQAFRGLIGGTNKRAPGTPARFSGSLLGGKAALTLSGAQPEDEAEYYCALWYSNLWVFGGGTKLTVL
notes: human IgG1
[2]
  binding result: no binding (tested: 500 nM)
[3]
  binding result: no binding (tested: 500 nM)
[4]
  binding result: no binding

B3: 16D5 IgG (antibody, V domains shown)
VH: not shown
VL: QAVVTQEPSLTVSPGGTVTLTCGSSTGAVTTSNYANWVQEKPGQAFRGLIGGTNKRAPGTPARFSGSLLGGKAALTLSGAQPEDEAEYYCALWYSNLWVFGGGTKLTVL
notes: human IgG1
[1]
  binding result: no binding (tested: 500 nM)
[2]
  binding result: no binding (tested: 500 nM)
[3]
  binding result: no binding (tested: 500 nM)
[4]
  binding result: no binding

B4: 21G8 IgG (antibody, V domains shown)
VH: not shown
VL: QAVVTQEPSLTVSPGGTVTLTCGSSTGAVTTSNYANWVQEKPGQAFRGLIGGTNKRAPGTPARFSGSLLGGKAALTLSGAQPEDEAEYYCALWYSNLWVFGGGTKLTVL
notes: human IgG1
[3]
  binding result: no binding (tested: 500 nM)
[4]
  binding result: binds

B5: 15B6 IgG (antibody, V domains shown)
VH: QVQLVQSGAEVKKPGASVKVSCKASGYTFTSYYMHWVRQAPGQGLEWMGIINPSGGSTSYAQKFQGRVTMTRDTSTSTVYMELSSLRSEDTAVYYCARNYYIGIVPFDYWGQGTLVTVSS
VL: QAVVTQEPSLTVSPGGTVTLTCGSSTGAVTTSNYANWVQEKPGQAFRGLIGGTNKRAPGTPARFSGSLLGGKAALTLSGAQPEDEAEYYCALWYSNLWVFGGGTKLTVL
notes: human IgG1
[1]
  binding result: no binding (tested: 500 nM)
[2]
  binding result: no binding (tested: 500 nM)
[3]
  binding result: no binding (tested: 500 nM)

B6: Tim3_0028 (antibody, V domains shown)
VH: EVQLQQSVAELVRPGASVKLSCTASGFNIKTTYMHWVKQRPEQGLEWIGRIDPADDNTKYAPKFQGKATITADTSSNTAYLQLSSLTSEDAAIYYCVRDFGYVAWFAYWGQGTLVTFSA
VL: NIVMTPTPKFLPVSSGDRVTMTCRASQSVDNYVAWYQQKPGQSPKLLIYYASNRYIGVPDRFTGSGSGTDFTFTISSVQVEDLAVYFCQQHYSSPYTFGSGTKLEIK
[5]
  MFI: 3000 MFI
[6]
  specific binding MFI: 1350 MFI
[7]
  specific binding MFI: 1610 MFI
[8]
  specific binding MFI: 950 MFI
[9]
  IFN-gamma release in MLR at 1 µg/ml, % of IL-2 control: 12%
[10]
  MFI: 4090 MFI
[11]
  MFI: 3940 MFI
[12]
  internalization at 30 Min, RPMI-8226: 50%
  internalization at 60 Min, RPMI-8226: 59%
  internalization at 120 Min, RPMI-8226: 67%
  internalization at 240 Min, RPMI-8226: 68%
  internalization at 26 h, RPMI-8226: 83%

B7: 6B6 IgG (antibody, V domains shown)
VH: QVQLVQSGAEVKKPGASVKVSCKASGYTFTSYYMHWVRQAPGQGLEWMGIINPSGGSTSYAQKFQGRVTMTRDTSTSTVYMELSSLRSEDTAVYYCARSYVDMDYWGQGTLVTVSS
VL: EIVLTQSPGTLSLSPGERATLSCRASQSVSSSYLAWYQQKPGQAPRLLIYGASSRATGIPDRFSGSGSGTDFTLTISRLEPEDFAVYYCQQDIWSPTFGQGTKVEIK
notes: human IgG1
[3]
  binding result: no binding (tested: 500 nM)

B8: 5D9 Fab (Fab, V domains shown)
VH: QVQLVQSGAEVKKPGASVKVSCKASGYTFTSYYMHWVRQAPGQGLEWMGIINPSGGSTSYAQKFQGRVTMTRDTSTSTVYMELSSLRSEDTAVYYCARSYIDMDYWGQGTLVTVSS
VL: EIVLTQSPGTLSLSPGERATLSCRASQSVSSSYLAWYQQKPGQAPRLLIYGASSRATGIPDRFSGSGSGTDFTLTISRLEPEDFAVYYCQQDNWSPTFGQGTKVEIK
[13]
  binding result: no binding

B9: 6B6 Fab (Fab, V domains shown)
VH: QVQLVQSGAEVKKPGASVKVSCKASGYTFTSYYMHWVRQAPGQGLEWMGIINPSGGSTSYAQKFQGRVTMTRDTSTSTVYMELSSLRSEDTAVYYCARSYVDMDYWGQGTLVTVSS
VL: EIVLTQSPGTLSLSPGERATLSCRASQSVSSSYLAWYQQKPGQAPRLLIYGASSRATGIPDRFSGSGSGTDFTLTISRLEPEDFAVYYCQQDIWSPTFGQGTKVEIK
[13]
  binding result: no binding

B10: aTim3 0018MutNQ (antibody, V domains shown)
VH: QVTLKESGPGILQPSQTLSLTCSFSGFSLSTSGMSVGWIRQPSGKGLEWLAHIWLNDDVFFNPALKRRLTISKDTSNNQVFLQIASVVTADTATYYCVRANGYLYALDYWGQGISVTVSS
VL: QIVLTQSPAIMSASPGQKVTITCSASSSVQYTQWYQQKLGSSPKLWIYDAFKLAPGVPARFSGSGTGTSYSLTISSMEAEDAASYFCHQWSSYPWTFGGGTKLEIK
notes: also called aT3m3 0018MutNQ
[14]
  inflexion point: 10.8 ng/mL
[15]
  EC50: 13.4 ng/mL
[16]
  EC50: 13.2 ng/mL
[17]
  EC50: 12 ng/mL
[18]
  inflexion point: 10.8 ng/mL
[19]
  inflexion point: 12.8 ng/mL

B11: aTim3 0018MutNS (antibody, V domains shown)
VH: QVTLKESGPGILQPSQTLSLTCSFSGFSLSTSGMSVGWIRQPSGKGLEWLAHIWLNDDVFFNPALKRRLTISKDTSNNQVFLQIASVVTADTATYYCVRANGYLYALDYWGQGISVTVSS
VL: QIVLTQSPAIMSASPGQKVTITCSASSSVSYTQWYQQKLGSSPKLWIYDAFKLAPGVPARFSGSGTGTSYSLTISSMEAEDAASYFCHQWSSYPWTFGGGTKLEIK
notes: also called aT3m3 0018MutNS
[14]
  inflexion point: 6.5 ng/mL
[15]
  EC50: 11.2 ng/mL
[16]
  EC50: 11.9 ng/mL
[17]
  EC50: 10.3 ng/mL
[18]
  inflexion point: 6.5 ng/mL
[19]
  inflexion point: 11.1 ng/mL

B12: aTim3 0016MutNS (antibody, V domains shown)
VH: QVTLKESGPGILQPSQTLRLTCSFSGFSLSTSGMSVGWIRQPSGKGLEWLAHIWLNDDVFFNPALKSRLTISKDTSNNQVFLQIASVVTADTATYYCVRANGYLYALDYWGQGTSVTVSS
VL: QIVLTQSPAIMSASPGQKVTITCSASSSVSYTQWYQQKLGSSPKLWIYDAFKLAPGVPARFSGSGTGTSYSLTISSMEAEDAASYFCHQWSSYPWTFGGGTKLEIK
[14]
  inflexion point: 6.5 ng/mL
[15]
  EC50: 9.1 ng/mL
[16]
  EC50: 9.7 ng/mL
[17]
  EC50: 8.5 ng/mL
[18]
  inflexion point: 5.5 ng/mL
[19]
  inflexion point: 8.5 ng/mL

B13: aTim3 0016 MutNQ (antibody, V domains shown)
VH: QVTLKESGPGILQPSQTLRLTCSFSGFSLSTSGMSVGWIRQPSGKGLEWLAHIWLNDDVFFNPALKSRLTISKDTSNNQVFLQIASVVTADTATYYCVRANGYLYALDYWGQGTSVTVSS
VL: QIVLTQSPAIMSASPGQKVTITCSASSSVQYTQWYQQKLGSSPKLWIYDAFKLAPGVPARFSGSGTGTSYSLTISSMEAEDAASYFCHQWSSYPWTFGGGTKLEIK
[14]
  inflexion point: 5.7 ng/mL
[15]
  EC50: 6.8 ng/mL
[16]
  EC50: 8.3 ng/mL
[17]
  EC50: 7.6 ng/mL
[18]
  inflexion point: 5.7 ng/mL
[19]
  inflexion point: 5.4 ng/mL

B14: 11F8 Fab (Fab, V domains shown)
VH: QVQLVQSGAEVKKPGSSVKVSCKASGGTFSSYAISWVRQAPGQGLEWMGGIIPIFGTANYAQKFQGRVTITADKSTSTAYMELSSLRSEDTAVYYCARAVFYRAWYSFDYWGQGTTVTVSS
VL: DIQMTQSPSTLSASVGDRVTITCRASQSISSWLAWYQQKPGKAPKLLIYDASSLESGVPSRFSGSGSGTEFTLTISSLQPDDFATYYCQQYTSPPPTFGQGTKVEIK
[13]
  Kd: 1200 nM

Source: patent publication US20210087291A1 (Hoffmann-La Roche, published 2021)
